Biological target: glycogen-synthase kinase 3β (GSK3β) (UniProt P49841 1-420)
Assay: SPR

B1: Nav1.6 C-terminal tail (domain or fragment)
chain: LENFSVATEESADPLSEDDFETFYEIWEKFDPDATQFIEYCKLADFADALEHPLRVPKPNTIELIAMDLPMVSGDRIHCLDILFAFTKRVLGDSGELDILRQQMEERFVASNPSKVSYEPITTTLRRKQEEVSAVVLQRAYRGHLARRGFICKKTTSNKLENGGTHREKKESTPSTASLPSYDSVTKPEKEKQQRAEEGRRERAKRQKEVRESKC
  Kd: 165 nM

Reference: paper PMC6150488 (Cell reports, 2018)
